For assay [1], the target named is integrin αIIbβ3 on human platelets (human) (UniProt P08514). The experiment in a line: cell-based or functional assay.
The target in assay [2] is integrin αIIbβ3 on CHO cells (CHO-αIIbβ3) (UniProt P08514). The experiment in a line: cell adhesion inhibition: CHO-αIIbβ3 cells to immobilized fibrinogen.
Assay [3] concerns the target integrin αvβ3 on CHO cells (CHO-αvβ3) (UniProt P06756). In words: cell adhesion inhibition: CHO-αvβ3 cells to immobilized fibrinogen.

integrin αIIbβ3 on human platelets (human), sequence (P08514 32-1039, chain 1 of 2): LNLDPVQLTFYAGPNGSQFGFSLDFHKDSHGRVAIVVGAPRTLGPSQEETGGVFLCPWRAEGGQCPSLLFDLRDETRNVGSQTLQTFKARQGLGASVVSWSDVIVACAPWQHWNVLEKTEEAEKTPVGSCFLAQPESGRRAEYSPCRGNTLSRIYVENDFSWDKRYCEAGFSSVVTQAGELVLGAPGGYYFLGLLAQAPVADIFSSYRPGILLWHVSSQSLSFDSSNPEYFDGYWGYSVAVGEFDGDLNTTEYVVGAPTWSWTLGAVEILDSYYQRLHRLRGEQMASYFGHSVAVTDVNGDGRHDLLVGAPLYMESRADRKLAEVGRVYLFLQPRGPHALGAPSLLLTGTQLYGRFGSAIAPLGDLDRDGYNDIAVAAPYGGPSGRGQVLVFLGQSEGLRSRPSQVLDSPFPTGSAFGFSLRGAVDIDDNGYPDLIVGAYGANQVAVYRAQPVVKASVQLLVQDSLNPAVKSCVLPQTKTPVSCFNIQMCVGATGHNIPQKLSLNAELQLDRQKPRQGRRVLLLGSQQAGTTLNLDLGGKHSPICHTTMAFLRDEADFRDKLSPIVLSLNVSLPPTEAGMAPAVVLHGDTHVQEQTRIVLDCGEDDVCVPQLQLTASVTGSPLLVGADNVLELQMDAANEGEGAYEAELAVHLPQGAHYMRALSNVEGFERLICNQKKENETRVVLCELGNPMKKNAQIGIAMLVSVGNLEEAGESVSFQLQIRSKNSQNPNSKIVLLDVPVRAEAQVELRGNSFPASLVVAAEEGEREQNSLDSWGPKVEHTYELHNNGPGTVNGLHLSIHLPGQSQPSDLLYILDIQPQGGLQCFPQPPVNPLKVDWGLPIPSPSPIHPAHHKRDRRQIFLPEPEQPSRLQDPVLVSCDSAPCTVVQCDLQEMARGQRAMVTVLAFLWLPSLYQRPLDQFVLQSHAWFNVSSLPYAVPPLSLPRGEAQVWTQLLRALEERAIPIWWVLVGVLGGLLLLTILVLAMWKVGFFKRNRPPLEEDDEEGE
integrin αIIbβ3 on human platelets (human), sequence (P05106 27-788, chain 2 of 2, further chain): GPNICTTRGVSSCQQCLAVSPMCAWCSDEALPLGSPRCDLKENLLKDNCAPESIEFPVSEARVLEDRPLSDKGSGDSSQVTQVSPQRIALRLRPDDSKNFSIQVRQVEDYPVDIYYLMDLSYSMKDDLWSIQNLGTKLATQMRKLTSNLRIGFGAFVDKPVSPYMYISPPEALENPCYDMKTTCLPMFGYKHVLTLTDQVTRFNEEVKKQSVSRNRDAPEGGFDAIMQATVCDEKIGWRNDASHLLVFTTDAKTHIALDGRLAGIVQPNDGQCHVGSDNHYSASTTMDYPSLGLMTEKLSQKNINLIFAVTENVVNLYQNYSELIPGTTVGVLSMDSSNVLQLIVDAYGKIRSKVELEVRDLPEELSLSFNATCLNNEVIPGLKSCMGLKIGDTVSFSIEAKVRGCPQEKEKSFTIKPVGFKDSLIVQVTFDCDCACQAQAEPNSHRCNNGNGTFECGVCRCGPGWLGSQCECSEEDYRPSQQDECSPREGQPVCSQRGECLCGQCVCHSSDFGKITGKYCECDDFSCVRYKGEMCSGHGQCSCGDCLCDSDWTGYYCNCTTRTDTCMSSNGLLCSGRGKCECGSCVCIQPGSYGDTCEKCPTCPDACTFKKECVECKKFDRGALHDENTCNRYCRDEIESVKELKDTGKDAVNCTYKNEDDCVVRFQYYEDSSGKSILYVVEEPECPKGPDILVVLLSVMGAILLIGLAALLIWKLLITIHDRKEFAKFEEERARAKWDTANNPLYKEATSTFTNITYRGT

As usually defined, the IC50 is the point on the concentration scale where inhibition reaches its midpoint. In assay [1], trimucrin mutant T/KRR had a Platelet aggregation IC50 (nM), ADP of 213 nM and a Platelet aggregation IC50 (nM), Collagen of 30.9 nM. The substance further gave an IC50 in assay [2] of 7330 nM.

In assay [1], trimucrin mutant T/KY had a Platelet aggregation IC50 (nM), ADP of 246 nM and a Platelet aggregation IC50 (nM), Collagen of 44.9 nM. The IC50 in assay [2] turned out to be 3300 nM.

For trimucrin mutant T/KF, in assay [1], the Platelet aggregation IC50 (nM), ADP was found to be 154 nM and the Platelet aggregation IC50 (nM), Collagen is 68.9 nM. The IC50 in assay [2] turned out to be 5550 nM.

For trimucrin mutant T/IEEGKS, in assay [1], the Platelet aggregation IC50 (nM), ADP was 563 nM and the Platelet aggregation IC50 (nM), Collagen is 632 nM. Besides, the IC50 in assay [2] is above 195000 nM.

Take trimucrin mutant T/KHR: in assay [1], the Platelet aggregation IC50 (nM), ADP was 256 nM and the Platelet aggregation IC50 (nM), Collagen was 80.1 nM. The substance further returned an IC50 in assay [2] of 5980 nM.

In the case of trimucrin mutant T/KH, in assay [1], the Platelet aggregation IC50 (nM), ADP amounted to 382 nM and the Platelet aggregation IC50 (nM), Collagen worked out at 99.3 nM. The IC50 in assay [2] was 15700 nM.

For trimucrin mutant T/KR, in assay [1], the Platelet aggregation IC50 (nM), ADP stood at 141 nM and the Platelet aggregation IC50 (nM), Collagen amounted to 49.9 nM. Besides, the IC50 in assay [2] worked out at 6310 nM.

In assay [1], trimucrin mutant T/KFRFH showed a Platelet aggregation IC50 (nM), ADP of 120 nM and a Platelet aggregation IC50 (nM), Collagen of 63.1 nM. This substance also yielded an IC50 in assay [2] of 3190 nM.

Take trimucrin T/KRRR mutant: in assay [1], the Platelet Aggregation IC50 was 127 nM; the Platelet aggregation IC50 (nM), ADP was determined as 127 nM; the Platelet aggregation IC50 (nM), Collagen was determined as 30.6 nM. The same substance showed an IC50 in assay [2] of 6580 nM.

For trimucrin mutant T/KWR, in assay [1], the Platelet aggregation IC50 (nM), ADP came to 106 nM and the Platelet aggregation IC50 (nM), Collagen stood at 26.3 nM. In addition, in assay [2], the IC50 stood at 290 nM.

Take rhodostomin mutant R/K: the Platelet aggregation IC50 (nM), ADP in assay [1] was 152 nM. In assay [2], the IC50 is 89.8 nM.

In assay [1], trimucrin mutant T/KRRFH yielded a Platelet aggregation IC50 (nM), ADP of 192 nM and a Platelet aggregation IC50 (nM), Collagen of 66.9 nM. The substance further yielded a half-inhibitory concentration (IC50) in assay [2] of 5600 nM.

In assay [1], trimucrin mutant T/KWNR had a Platelet aggregation IC50 (nM), ADP of 54.6 nM and a Platelet aggregation IC50 (nM), Collagen of 52.4 nM. For the same substance, in assay [2], the IC50 is above 692 nM.

With trimucrin mutant T/IEEGK, in assay [1], the Platelet aggregation IC50 (nM), ADP turned out to be 1050 nM and the Platelet aggregation IC50 (nM), Collagen came out at 217 nM. The substance further yielded an IC50 in assay [2] of 97600 nM.

In the case of trimucrin mutant T/KWN, in assay [1], the Platelet aggregation IC50 (nM), ADP amounted to 125 nM and the Platelet aggregation IC50 (nM), Collagen came out at 67.7 nM. In assay [2], this substance returned an IC50 of 1780 nM.

The substance trimucrin mutant T/KRKR displayed a Platelet aggregation IC50 (nM), ADP in assay [1] of 138 nM. In assay [2], the IC50 amounted to 13900 nM.

Turning to trimucrin mutant T/IEEGKRR, in assay [1], the Platelet aggregation IC50 (nM), ADP came to 511 nM and the Platelet aggregation IC50 (nM), Collagen was 57.5 nM. In assay [2], this substance showed an IC50 of 33800 nM.

On to trimucrin mutant T/KS, for which, in assay [1], the Platelet aggregation IC50 (nM), ADP is 1080 nM and the Platelet aggregation IC50 (nM), Collagen was 562 nM. In assay [2], this substance came in with an IC50 of 39900 nM.

In assay [1], trimucrin (TMV-7) came in with a Platelet aggregation IC50 (nM), ADP of 184 nM and a Platelet aggregation IC50 (nM), Collagen of 83.8 nM.

In assay [1], rhodostomin had a Platelet Aggregation IC50 of 83.2 nM; a Platelet aggregation IC50 (nM), ADP of 81.5 nM; a Platelet aggregation IC50 (nM), Collagen of 66.8 nM. For the same substance, the IC50 in assay [3] was 13 nM. For the same substance, in assay [2], the IC50 amounted to 59.5 nM.

For trimucrin mutant T/KYR, in assay [1], the Platelet aggregation IC50 (nM), ADP came out at 117 nM and the Platelet aggregation IC50 (nM), Collagen was determined as 61 nM. For the same substance, the IC50 in assay [2] turned out to be 1460 nM.

For trimucrin mutant T/K, in assay [1], the Platelet aggregation IC50 (nM), ADP turned out to be 563 nM and the Platelet aggregation IC50 (nM), Collagen amounted to 105 nM. This substance also gave an IC50 in assay [2] of 27300 nM.

In assay [1], trimucrin mutant T/MGKWN came in with a Platelet aggregation IC50 (nM), ADP of 78 nM and a Platelet aggregation IC50 (nM), Collagen of 48.5 nM. For the same substance, the IC50 in assay [2] amounted to 1720 nM.
